Laboratory results from paper PMC10189407 (The Journal of Biological Chemistry, 2023).
Where a chain is given by its changes, count along the chain named. Names and notes keep the numbering of the source. Blank lines part the entries; values can stand above or below the binder they belong to.

Molecular target: Aβ(1–28) (Homo sapiens (assumed), UniProt P05067)
Test: SPR

Sequence of Aβ(1–28) (P05067 672-699): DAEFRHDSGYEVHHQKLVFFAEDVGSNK

binding result: binds
B1: crenezumab G33S(HC)-NEP fusion, IgG-CTF-2 format (antibody, V domains shown)
VH: EVQLVESGGGLVQPGGSLRLSCAASGFTFSSYSMSWVRQAPGKGLELVASINSNGGSTYYPDSVKGRFTISRDNAKNSLYLQMNSLRAEDTAVYYCASGDYWGQGTTVTVSS
VL: DIVMTQSPLSLPVTPGEPASISCRSSQSLVYSNGDTYLHWYLQKPGQSPQLLIYKVSNRFSGVPDRFSGSGSGTDFTLKISRVEAEDVGVYYCSQSTHVPWTFGQGTKVEIK

binding result: binds
B2: crenezumab G33S(HC)/S56F(LC)-NEP fusion, IgG-CTF-2 format (antibody, V domains shown)
VH: B1 VH
VL: B1 VL with S61F
